The format of data set [1] is biochemical. From the text:
The most remarkable property of the PAF acetylhydrolase is its marked specificity for substrates with a short residue at the sn-2 position of the substrate. This strict specificity distinguishes PAF acetylhydrolase from other forms of PLA2. […] Native plasma PAF-AH has several other properties that distinguish it from other phospholipases including calcium-independence and resistance to compounds that modify sulfhydryl groups or disrupt disulfides.

Data set [2] relates to antigen-induced eosinophil recruitment. In words: Antigen-induced eosinophil recruitment to trachea of OVA-sensitized mice. The class given is in vivo, mouse. The following applies: 750 units IV 30 minutes before and 24 hours after aerosolized OVA; 48 hours. As to the method:
The accumulation of eosinophils in the airway is a characteristic feature of late phase immune responses which occur in asthma, rhinitis and eczema. BALB/c mice (Charles River) were sensitized by two intraperitoneal injections consisting of 1 μg of ovalbumin (OVA) in 4 mg of aluminum hydroxide (Imject alum, Pierce Laboratories, Rockford, Ill.) given at a 2 week interval. Fourteen days following the second immunization, the sensitized mice were challenged with either aerosolized OVA or saline as a control.
Prior to challenge mice were randomly placed into four groups, with four mice/group. Mice in groups 1 and 3 were pretreated with 140 μl of control buffer consisting of 25 mM tris, 0.5M NaCl, 1 mM EDTA and 0.1% Tween 80 given by intravenous injection. Mice in groups 2 and 4 were pretreated with 750 units of PAF-AH (activity of 5,500 units/ml given in 140 μl of PAF-AH buffer). Thirty minutes following administration of PAF-AH or buffer, mice in groups 1 and 2 were exposed to aerosolized PBS as described below, while mice in groups 3 and 4 were exposed to aerosolized OVA. Twenty-four hours later mice were treated a second time with either 140 μl of buffer (groups 1 and 3) or 750 units of PAF-AH in 140 μl of buffer (groups 2 and 4) given by intravenous injection.
Eosinophil infiltration of the trachea was induced in the sensitized mice by exposing the animals to aerosolized OVA. […]

Data set [3] concerns PAF-induced necrotizing enterocolitis. Briefly: Rat model of PAF-induced necrotizing enterocolitis (NEC). The class given is in vivo. As to the method: The small intestines were removed after 2 hours from the ligament of Trietz to the cecum, thoroughly washed with cold saline and examined grossly. Samples were obtained from microscopic examination from the upper, middle and lower portions of the small intestine. The tissues were fixed in buffered formalin and the sample processed for microscopic examination by staining with hematoxylin and eosin. The experiment was repeated three times.
In order to determine if the protection against NEC in rats was dose dependent, animals were treated with increasing doses of PAF-AH 15 minutes prior to PAF administration. Initially, PAF-AH, ranging from 25.5 to 25,500 units were administered into the tail vein of rats. PAF (0.4 μg in 0.2 ml of BSA-saline) was subsequently injected into the abdominal aorta 15 minutes after the administration of PAF-AH. The small intestine was removed and examined for NEC development 2 hours after PAF administration. Plasma PAF-AH activity was determined prior to the exogenous administration of the enzyme, and 15 minutes and 21/4 hours after PAF-AH administration. The results are the mean of 2-5 animals in each group.
In order to determine the length of time exogenous PAF-AH afforded protection against development of NEC, rats were injected once with a fixed amount of the enzyme via the tail vein and subsequently challenged with PAF at various time points. PAF-AH (8,500 units in 0.3 ml) or vehicle alone was administered into the tail vein of rats, and PAF (0.36 μg in 0.2 ml of BSA-saline) was injected into the abdominal aorta at the various times after the enzyme administration. The small intestines were removed 2 hours after the PAF injection for gross and histological examinations in order to evaluate for NEC development. Plasma PAF-AH activities were determined at various times after enzyme administration and two hours after PAF administration. The mean value±standard error for enzyme activity was determined for each group.
In order to determine if administration of PAF-AH was capable of reversing development of NEC induced by PAF injection, 25,500 units of enzyme was administered via injection into the vena cava two minutes following PAF administration (0.4 μg).

B1: PAF-AH: Recombinant human plasma platelet-activating factor acetylhydrolase (beginning at Ile42 of SEQ ID NO:8) expressed in E. coli (protein, UniProt Q13093 22-441, looked up)
Platelet-activating factor …: FDWQYINPVAHMKSSAWVNKIQVLMAAASFGQTKIPRGNGPYSVGCTDLMFDHTNKGTFLRLYYPSQDNDRLDTLWIPNKEYFWGLSKFLGTHWLMGNILRLLFGSMTTPANWNSPLRPGEKYPLVVFSHGLGAFRTLYSAIGIDLASHGFIVAAVEHRDRSASATYYFKDQSAAEIGDKSWLYLRTLKQEEETHIRNEQVRQRAKECSQALSLILDIDHGKPVKNALDLKFDMEQLKDSIDREKIAVIGHSFGGATVIQTLSEDQRFRCGIALDAWMFPLGDEVYSRIPQPLFFINSEYFQYPANIIKMKKCYSPDKERKMITIRGSVHQNFADFTFATGKIIGHMLKLKGDIDSNVAIDLSNKASLAFLQKHLGLHKDFDQWDCLIEGDDENLIPGTNINTTNQHIMLQNSSGIEKYN
On to B1, for which the “degradation of glutaroylPC (oxidized phospholipid)” value in data set [1] is listed as “rapidly degraded”. Also, in data set [2], the “eosinophils in submucosal tissue of trachea” value is “very few eosinophils in the submucosal tissue”. Also, in data set [3] (8,500 units IV once), the “NEC development, PAF challenge within the first eight hours after injection” value was “none of the rats developed NEC”; the “animals developing NEC, PAF challenge at 24 and 48 hours after injection” value was determined as 100%. For the same molecule, in data set [3] (25,500 units IV followed by PAF injection), the “protection against NEC” value was “completely protected”. For the same molecule, the “gross findings of bowel, PAF-AH in the absence of PAF” value in data set [3] (25,500 units IV, no PAF) is listed as “no effect on the gross findings”. In addition, the “NEC development, enzyme given 15 minutes after PAF” value in data set [3] (25,500 units into vena cava) is given as “all animals developed NEC”. For the same molecule, the “NEC development, enzyme given two minutes following PAF” value in data set [3] (25,500 units into vena cava, PAF 0.4 μg) is “None of the animals developed NEC”. For the same molecule, the “gross findings of bowel” value in data set [3] (25,500 units via tail vein 15 minutes prior to PAF into aorta) is listed as “the bowel appeared to be normal”. Also, the “lowest protective amount of enzyme against NEC” value in data set [3] (IV 15 minutes prior to PAF 0.4 μg) came out at 2040 units. For the same molecule, the “NEC development at low doses” value in data set [3] (less than 2,000 units of the enzyme) was “developed NEC”.

Source of the values: US5847088A, “Antibodies specific for platelet-activating factor acetylhydrolase” (ICOS Corporation, priority 1995, dated 1998).
